Measured values published in the DeepSol protein solubility set.

Test: soluble on expression in E. coli; label from the status in PepcDB or PDB records

Sequence	soluble on expression in E. coli
MSLETRARNSTRPASGLIDWEQARQAALRLSQWEQAPVDNRAFRREQYARMVALSEPLIADYLGVRLPEPVSRIFVFDRREWLEANIVSFSQLFRPIEEMYEKNGGGRGALGVLMNDVSSKLLGVQIGGLLGYLAQRVLGQYDLSLLSAEATGGSLYFVEPNIARVQQQLGLSDEDFRLWITLHEMTHAFEFEAYPWVRTYFRELLEQNFALVSGQMLSSGNSLVDMLMRLLQGIGSGQHWIETVLTPEQRAVFDRIQALMSLIEGYGNHVMNAVGRRLLPSFNQIEQQIAQRQRQRTMLDQMVFRLTGLDLKLAQYQQGEAFVNAVVAARGIQFASRVWERPENLPSMDEIRNPGQWIVRMDREGHHHHHH	soluble
MSTQYLNSNLKVFSLNSNKELAEQIAKHIGVGLGKCSVDRFSDGEVQINIEESIRGCDVFIIQSTSFPVNEHIMELLIMIDALKRASAKTINIVIPYYGYARQDRKARSREPITSKLVANLLETAGATRVITLDLHAPQIQGFFDIPIDHLMGVPILSDYFETKGLKDIVIVSPDHGGVTRARKMADRLKAPIAIIDKRRPRPNVSEVMNIIGNIEGKTAILIDDIIDTAGTITLAANALVENGASEVYACCTHPVLSGPAIERIQNSNIKELVVTNSIVLPEEKKIDKVHELSVAPLIGEAIIRVYEEESVSVLFN	not soluble
MEPLSHRGLPRLSWIDTLYSNFSYGTDEYDGEGNEEQKGPPEGSETMPYIDESPTMSPQLSARSQGGGDGVSPTPPEGLAPGVEAGKGLEMRKLVLSGFLASEEIYINQLEALLLPMKPLKATATTSQPVLTIQQIETIFYKIQDIYEIHKEFYDNLCPKVQQWDSQVTMGHLFQKLASQLGVYKAFVDNYKVALETAEKCSQSNNQFQKISEELKVKGPKDSKDSHTSVTMEALLYKPIDRVTRSTLVLHDLLKHTPVDHPDYPLLQDALRISQNFLSSINEDIDPRRTAVTTPKGETRQLVKDGFLVEVSESSRKLRHVFLFTDVLLCAKLKKTSAGKHQQYDCKWYIPLADLVFPSPEESEASPQVHPFPDHELEDMKMKISALKSEIQKEKANKGQSRAIERLKKKMFENEFLLLLNSPTIPFRIHNRNGKSYLFLLSSDYERSEWREAIQKLQKKDLQAFVLSSVELQVLTGSCFKLRTVHNIPVTSNKDDDESPGLYGFLHVIVHSAKGFKQSANLYCTLEVDSFGYFVSKAKTRVFRDTAEPKWDEEFEIELEGSQSLRILCYEKCYDKTKVNKDNNEIVDKIMGKGQIQLDPQTVETKNWHTDVIEMNGIKVEFSMKFTSRDMSLKRTPSKKQTGVFGVKISVVTKRERSKVPYIVRQCVEEVEKRGIEEVGIYRISGVATDIQALKAVFDANNKDILLMLSDMDINAIAGTLKLYFRELPEPLLTDRLYPAFMEGIALSDPAAKENCMMHLLRSLPDPNLITFLFLLEHLKRVAEKEPINKMSLHNLATVFGPTLLRPSEVESKAHLTSAADIWSHDVMAQVQVLLYYLQHPPISFAELKRNTLYFSTDV	soluble
MAKNKKLFEYLSQHAETISSTWYETIEETDPNSIYASTDPVVIHNLKSQNLAFNYKINRIFIDDEDVYLPILKEWAFEVTQDQEHLKTPIHYIIREFVRVRDLYVSYVKEFVHLNQNTVKSEEAEDLYHALIKAFDLVIHIFIEEMYKNTSLQLQAQKDMITELSAPVIVLFHSVGLLPLIGDIDTVRAKLIMENTLHQCAKKKVTQLYIDLSGVAVIDTMVAHQLFSLIEALRLIGVSSTLSGIRPEIAQTAVQLGLSFEGISLRSTLASAIASDLKLKKV	not soluble
MERKSPSGKKFRSKPQLARYLGGSMDLSTFDFRTGKMLMSKMNKSRQRVRYDSSNQVKGKPDLNTALPVRQTASIFKQPVTKITNHPSNKVKSDPQKAVDQPRQLFWEKKLSGLNAFDIAEELVKTMDLPKGLQGVGPGCTDETLLSAIASALHTSTMPITGQLSAAVEKNPGVWLNTTQPLCKAFMVTDEDIRKQEELVQQVRKRLEEALMADMLAHVEELARDGEAPLDKACAEDDDEEDEEEEEEEPDPDPEMEHV	soluble
MARLTVHTLETAPEAAKARVEAVLQNNGFIPNLIGVLSNAPEALAFYQEVGKLNAANSLTAGEVEVIQIIAARTNQCGFCVAGHTKLATLKKLLSEQSVKAARALAAGEFDDAKLGALAAFTQAVMAKKGAVSDEELKAFFDAGYNQQQAVEVVMGVALATLCNYVNNLGQTEINPELQAYA	soluble
MSEDVSKNLSETLFVKHKQAKETSALTQYMPTSKKILDDREQQEDRAWYRHLRRLQWAWQGLSPIEMEGVLSRIASSTHSRTHDDWLDTVMGYHSGNWTFEWIKLGMEHQRRANDLKGEDAADELFTASLCFSIAGYPHLKNDNLALQAQVLANKAYSEGAEKTQYTIKQIEVPYQKRKIIANLHLPRTDKQLPVVMVSAGLDSLQTDMWRLFRNHFAPKDIAMLTVDMPSVGHSSHWPLTEDSSCLHQAVLNELYSIPYVDHHKVGLVGFRFGGNAMVRLSFLEQEKIKACVALGAPVHDLFTSPKKLQKMPKMYLDMLASRLGKSAVDINSMAGQMMAWSLKVQGFLSSRKTKVPILALSLEGDPVSPYSDNQLVALFSHYGQAKKISSKTITKGYEQSLDLAIKWLEDELLR	not soluble
MGSDKIHHHHHHLTTVLNASPQRFVNTPAVQRIAQRALRYLQSGFSIHLRGAAGVGKTTLAMHLADLLNQPIILLFGDDEFKTSDLIGNQLGYTRKKVVDNFIHSVIKVEDEVRQHWVDARLTLACKEGFTLVYDEFNRSHPEVNNVLLSVLEERLLVLPTNQHRAEYIRVHPQFRAILTSNPQEYCGVHATQDALMDRVITIDMPTPDELSQQEIVVHKTGIDSEKAEVIVRIVRTFWSRSGSGQGGGLRSCLMIAKICHEHEISVNPGDPSFQDICADILLSRTNQPLIEATRLLEEVLSEFYHRINTQSQPSEIIPNNQNQIVLEQRVPYEHEVYNYLCNSPGRRFSELAVELGIDRSQIVAALKSLREQGVLVQMQGNAESPSISQTVAFDSGHLINK	not soluble
MQTEHVILLNAQGVPTGTLEKYAAHTADTRLHLAFSSWLFNAKGQLLVTRRALSKKAWPGVWTNSVCGHPQLGESNEDAVIRRCRYELGVEITPPESIYPDFRARATDPSGIVENEVCPVFAARTTSALQINDDEVMDYQWCDLADVLHGIDATPWAFSPWMVMQATNREARKRLSAFTQLKLEHHHHHH	soluble
MSVVKSIELVLPEDRIYLAGSSIKGQVILTLNSTLVDPIVKVELVGRGYVEWSEEAGASCDYSRNVICNNKADYVHKTKTFPVEDNWLSAGSHTFDFHFNLPPRLPSTFTSKFGHVFYFVQASCMGREHILAKKRMYLLVQGTSTFHKETPFQNPLFVEAEEKVSYNCCRQGTVCLQIQMERNTFTPGEKVVFTTEINNQTSKCIKTVVFALYAHIQYEGFTPSAERRSRLDSSELLRQEANTPVTRFNTTKVVSTFNLPLLLSVSSSTQDGEIMHTRYELVTTVHLPWSLTSLKAKVPIIITSASVDSAICQLSEDGVLPVNPDHQN	soluble
MQLKTEYGKIDPYITKDGSIIRELMHPAIHGNSGQSLAEATVPAGGQTMLHKHAVAEEIYHITEGCGIMTLGGQEFEIRKGDTVCILPGTPHRIMNTGEKELKILCCCAPAYSHEDTELMKLEHHHHHH	soluble
MAAAKVALTKRADPAELRTIFLKYASIEKNGEFFMSPNDFVTRYLNIFGESQPNPKTVELLSGVVDQTKDGLISFQEFVAFESVLCAPDALFMVAFQLFDKAGKGEVTFEDVKQVFGQTTIHQHIPFNWDSEFVQLHFGKERKRHLTYAEFTQFLLEIQLEHAKQAFVQRDNARTGRVTAIDFRDIMVTIRPHVLTPFVEECLVAAAGGTTSHQVSFSYFNGFNSLLNNMELIRKIYSTLAGTRKDVEVTKEEFVLAAQKFGQVTPMEVDILFQLADLYEPRGRMTLADIERIAPLEEGTLPFNLAEAQRQKASGDSARPVLLQVAESAYRFGLGSVAGAVGATAVYPIDLVKTRMQNQRSTGSFVGELMYKNSFDCFKKVLRYEGFFGLYRGLLPQLLGVAPEKAIKLTVNDFVRDKFMHKDGSVPLAAEILAGGCAGGSQVIFTNPLEIVKIRLQVAGEITTGPRVSALSVVRDLGFFGIYKGAKACFLRDIPFSAIYFPCYAHVKASFANEDGQVSPGSLLLAGAIAGMPAASLVTPADVIKTRLQVAARAGQTTYSGVIDCFRKILREEGPKALWKGAGARVFRSSPQFGVTLLTYELLQRWFYIDFGGVKPMGSEPVPKSRINLPAPNPDHVGGYKLAVATFAGIENKFGLYLPLFKPSVSTSKAIGGGP	not soluble
MAVGGGIGGLLLVGLFLLLGGNPAEIDQVLGGDQTQIESGESTGAGDFDHCQTGADANASDDCRLYYTSFSVNEMWQTLLPAQAGIEYTEPTLTLFKNSTQTGCGFASASTGPFYCPSDQDAYFDLTFFDQMRQFGAENAPLAQMYIVAHEYGHHVQNLEGTLGLSNYNDPGADSNAVKIELQADCYAGIWANHSSEGPDPLLQPITESELDSALLAASAVGDDNIQQRSGGDVNPESWTHGSSQQRKDAFLAGYNTGQMSACDFLGRGVYNDA	not soluble
MELVATQDGFVGEMARGFTFQALGEVAAGFGKRLQAEGIPRVVVGHDARFLAREMAEHAAGVLGGLGLEVHLLQGPAPLPLFGFALRAKEAAGLYLTGSRRPFAFQGVKLRLGPGRPLPREGGGPRTPPSPGPFAPLEARRDYLDHLRKSAQGLALKRGVVYLDAMGGAGGGILGQVLKRLEAPVELRELHPLPHPLFYGVAPDPRPEHLRTLRLLLREAKPPALGLALDGDADRLGVYLPGGEALPGDQALARLREAAQGREVEALGEGAYRFPWHLEEPDPFLAALLLMGVLL	soluble
TDPDADRLGAAVRMPNGDYQVLTGNQLGSIMIHYILEAHQQAGTLPQNAAVLKSIVSSELATAIAEKCNTKMFNVLTGFKFIAEKIQQYEEDHSQTFMFGFEESYGYLVKPFVRDKDAIQALVLLAEVAAFYKKQGKTLYDGLQDIFEEFGYFEE	not soluble
MTTHRRRPKHDPKESEQEILNAAKQFLNERPFRELTVDEVMRRTGLKRPAFYVHFRDKHDLALRLVQAIGQELFGIADRWLEGDNPQEDLRRALVGLVEVYMKHSHVLRAFAEAASGDERVNSIYRAFVQEFISAAAQHIREEQATGQIQKDIDIDETARALIWLEERYLSDVFGRMPPADPEVVIRVLQNIWISTLYGSN	soluble
KNYDLIFGDSNTKKYYAQFAKEHKTHLYHQILQSNDEQFRFVENDQTVTSQTPFKS	not soluble
MSPTLSILIPVYKRDCRRLLEELYKQAEELSVGYEIILGDDCSGEPYTSQYIAYEQEGLCRLVSAEENMGAGRLRNRLAEEAQGEQLLILDSDTLPASPDFIERYLRHASGTTVVCGGFVYPPKSTNPLRQRYGAEVESRSAEERARKPHSGFISMAFMIPRKQMLATGFPPNMGMGYEDILFGERLRQAGIPILHIDNPVEHYHCDTAEGFLATTRSYLDNLYCHREELAELVSLLRAYNLLKRLHLMRMVAALWPLIRSSLEKQLTGAKPSLLLFSLYKLLYVASLSLVCAEKS	not soluble
LLRMHESLARRQLAEVERLDLVRQVRELIGELLVDGGATLEQVAARLGMPARRLRERLAMAGVRFNDLVTDYRCRLAKE	not soluble
MNNIENVDQKLIENLANLMSSEVRAKIYIYLRKYNKSTVDEIAGGTGIYPSTVRESILDMYNTGYVSREKMDKEGLGKKPYLYTAAAPSEIVRKISKNIQEKLNDLIMVDRRIESKELKIPFVPVKIVVDEKYRD	not soluble
MYFEGYGYRGSTFEQTYRCYPASFIDKPQLETGDKIIMPPSALDRLASLHIEYPMLFEVHNAAAERTSHCGVLEFIAEEGMIYMPYWMMQNLLLTEGDMVFIKNANLPKGTYVKLQPHTTDFLDISNPKAILEKTLRNYSCLTTGDSIMVAYNNKKYYIDIVETKPSNAISIIETDCEVDFAPPLDYKEPERQKAAVPPSTAPTAEEAAEEEPKFIPFTGPGRRLDGKAPKDKDVSASSPAKRQANATNSVQPSTASTSQSSSSRKTTEKLVFGPGGNRTSKETEKVPEKEPKEDPKKDEPKFSAFTGRKYSLKG	soluble
